T1: Cdc45 (S. cerevisiae), subunit of CMG (Saccharomyces cerevisiae, UniProt Q08032 1-650)
T1 sequence (looked up): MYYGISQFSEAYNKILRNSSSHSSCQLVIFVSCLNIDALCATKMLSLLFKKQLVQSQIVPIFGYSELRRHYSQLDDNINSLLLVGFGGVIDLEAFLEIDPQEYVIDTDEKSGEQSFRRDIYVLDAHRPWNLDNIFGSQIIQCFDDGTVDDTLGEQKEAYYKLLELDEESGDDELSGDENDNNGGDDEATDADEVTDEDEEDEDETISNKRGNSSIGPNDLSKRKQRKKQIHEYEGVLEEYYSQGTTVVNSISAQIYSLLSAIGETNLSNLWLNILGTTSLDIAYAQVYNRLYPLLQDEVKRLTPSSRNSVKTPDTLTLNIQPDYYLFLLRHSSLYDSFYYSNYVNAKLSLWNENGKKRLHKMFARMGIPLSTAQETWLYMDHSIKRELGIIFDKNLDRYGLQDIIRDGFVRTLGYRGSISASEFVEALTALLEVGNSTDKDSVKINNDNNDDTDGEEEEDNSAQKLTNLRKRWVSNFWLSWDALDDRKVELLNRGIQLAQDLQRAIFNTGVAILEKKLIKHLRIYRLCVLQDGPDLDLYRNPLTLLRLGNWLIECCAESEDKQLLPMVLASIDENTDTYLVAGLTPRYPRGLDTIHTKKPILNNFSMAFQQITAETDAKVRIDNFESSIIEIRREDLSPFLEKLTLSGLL

T2: Mcm5 (S. cerevisiae), subunit of CMG (Saccharomyces cerevisiae, UniProt P29496 1-775)
T2 sequence (looked up): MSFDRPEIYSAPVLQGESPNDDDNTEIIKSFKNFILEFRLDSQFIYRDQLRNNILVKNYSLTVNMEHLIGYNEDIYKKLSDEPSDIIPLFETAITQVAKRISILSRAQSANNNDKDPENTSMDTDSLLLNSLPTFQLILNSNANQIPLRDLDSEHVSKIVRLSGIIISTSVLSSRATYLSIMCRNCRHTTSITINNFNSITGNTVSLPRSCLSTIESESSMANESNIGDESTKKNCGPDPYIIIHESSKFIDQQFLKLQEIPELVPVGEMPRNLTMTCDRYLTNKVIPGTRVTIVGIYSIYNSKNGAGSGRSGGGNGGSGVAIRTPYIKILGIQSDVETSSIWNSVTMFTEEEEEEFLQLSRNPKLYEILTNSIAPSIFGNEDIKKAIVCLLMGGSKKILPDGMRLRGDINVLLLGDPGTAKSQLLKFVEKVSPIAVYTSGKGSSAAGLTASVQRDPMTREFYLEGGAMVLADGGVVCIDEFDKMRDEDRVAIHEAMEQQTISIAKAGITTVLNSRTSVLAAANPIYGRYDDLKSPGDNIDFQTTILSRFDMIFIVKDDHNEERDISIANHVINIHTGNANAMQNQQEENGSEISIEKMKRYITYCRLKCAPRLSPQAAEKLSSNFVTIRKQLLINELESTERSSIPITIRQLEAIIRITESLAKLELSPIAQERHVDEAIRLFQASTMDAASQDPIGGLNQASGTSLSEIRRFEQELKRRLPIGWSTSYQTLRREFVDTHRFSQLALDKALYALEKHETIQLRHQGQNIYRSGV

B1: 80/75mer unprimed fork (mixed)
DNA 1: CCCCCACCGATGTGGTAGGAAGTGAGAATTGGAGAGTGTGTTTTTTTTTTTTTTTTTTTTTTTTTTTTTTTTTTTTTTTT
DNA 2: TTTTTTTTTTTTTTTTTTTTTTTTTTTTTTTTTTTTTTTTCACACTCTCCAATTCTCACTTCCTACCACATCGGT
B2: GINS heterotetramer (Psf1, Psf2, Psf3, Sld5) of S. cerevisiae CMG (complex, Saccharomyces cerevisiae)
chain 1: MYGDLGNKLVLEAKRTKQLYARSNQDVNLPMYHEDIIRNILKEVSNLRKNTEYLKEQQQLGMLDDKVAKCQYFVTLLCMERNKRCLLAYQRLRTDILDSMAWNNNGLDLMSSITFSQQDTNNLSHQEQEYLKEYCDLITDLKSGDLVDIDLSGSLVPPSDVFIDVRVLKDAGEIQTEYGVFNLIKDSQFFVRQSDVERLIQQGYLQKI
chain 2: MSLPAHLQQTFSPEEIQFIVENEPIKIFPRITTRQKIRGDDRGTGNHTRWQLITTDDKALNNMVAMRSTEVVLWIALLLKQQSKCSIVAPQWLTTKELDRKIQYEKTHPDRFSELPWNWLVLARILFNKAKDDFHDPIHELRGKIQDLREIRQIKVLKGLKYLNESHLQLDNLSLLEINELRPFITEIMDKLREIHTASLTAGTENDEEEFNI
chain 3: MGYYDIDDVLADGTEFPCKFQYDIPGLGYLENNPGRPITKNTKLSLPLWLARILAIVGGDEALVDEEPVPFVELLPPDMFSTKVMNAIKTDPVALDLHSINSHFFSLAIKWIMLFSEKELANVVSELLLQRAQELNHHASSLSIDLNADSTGKNSANTNIATSTFLLKLEEMEKEIYKKSHESYKDTKRWMFKK
chain 4: MDINIDDILAELDKETTAVDSTKITQGSSSTTHRDANTIVGSSLDLNDKTQIYVSPQQDFSDLMKSWKNERCSPELLPYPHQLMKRLLNRISMQSQLIENISMGFLDMQNASNANPPMPNESKLPLLCMETELERLKFVIRSYIRCRLSKIDKFSLYLRQLNEDENSLISLTDLLSKDEIKYHDTHSLIWLKLVNDSILKYMPEELQAINDTEGSVNMIDEPDWNKFVFIHVNGPPDGKWNEDPLLQENEFGKPCYTVTIPDLKEEVELTIGSIYVMRYEVIRDLLRDDKVALI
B3: Psf1 (S. cerevisiae), subunit of GINS in CMG (natural protein, Saccharomyces cerevisiae, UniProt Q12488 1-208, looked up)
chain: B2 chain 1
B4: Dpb2 (S. cerevisiae), subunit of Pol ε (natural protein, Saccharomyces cerevisiae, UniProt P24482 1-689, looked up)
chain: MFGSGNVLPVKIQPPLLRPLAYRVLSRKYGLSIKSDGLSALAEFVGTNIGANWRQGPATIKFLEQFAAVWKQQERGLFIDQSGVKEVIQEMKEREKVEWSHEHPIQHEENILGRTDDDENNSDDEMPIAADSSLQNVSLSSPMRQPTERDEYKQPFKPESSKALDWRDYFKVINASQQQRFSYNPHKMQFIFVPNKKQNGLGGIAGFLPDIEDKVQMFLTRYYLTNDRVMRNENFQNSDMFNPLSSMVSLQNELSNTNRQQQSSSMSITPIKNLLGRDAQNFLLLGLLNKNFKGNWSLEDPSGSVEIDISQTIPTQGHYYVPGCMVLVEGIYYSVGNKFHVTSMTLPPGERREITLETIGNLDLLGIHGISNNNFIARLDKDLKIRLHLLEKELTDHKFVILGANLFLDDLKIMTALSKILQKLNDDPPTLLIWQGSFTSVPVFASMSSRNISSSTQFKNNFDALATLLSRFDNLTENTTMIFIPGPNDLWGSMVSLGASGTLPQDPIPSAFTKKINKVCKNVVWSSNPTRIAYLSQEIVIFRDDLSGRFKRHRLEFPFNESEDVYTENDNMMSKDTDIVPIDELVKEPDQLPQKVQETRKLVKTILDQGHLSPFLDSLRPISWDLDHTLTLCPIPSTMVLCDTTSAQFDLTYNGCKVINPGSFIHNRRARYMEYVPSSKKTIQEEIYI
B5: Dpb4 (S. cerevisiae), subunit of Pol ε (natural protein, Saccharomyces cerevisiae, UniProt Q04603 1-196, looked up)
chain: MPPKGWRKDAQGNYPTTSYIKEQENITIQDLLFPKSTIVNLAREVPQQSGKKLLINKDASLALQRGATVFVNHLLLFAREIAKSQDKKSCSVDDVLSALDHIGHSALKGPVRDKLDEYQAAVEQRKKEKLDSGEVDADGDIDMGEDKENVPVEKVKEHDEIEEQGDALQDVEESSEKKQKTESQDVETRVQNLEQT
B6: Dpb3 (S. cerevisiae), subunit of Pol ε (natural protein, Saccharomyces cerevisiae, UniProt P27344 1-201, looked up)
chain: MSNLVKEKAPVFPISKVKKIAKCDPEYVITSNVAISATAFAAELFVQNLVEESLVLAQLNSKGKTSLRLSLNSIEECVEKRDNFRFLEDAIKQLKKNSALDKKRELNMQPGRSDQEVVIEEPELHEDDGVEEEEEEDEVSEEEEPVHNEELLDDSKDQQNDKSTRSVASLLSRFQYKSALDVGEHSDSSDIEVDHTKSTDP

For series [1], the target named is CMG helicase (Cdc45-Mcm2-7-GINS, 11 subunits) (Saccharomyces cerevisiae, UniProt P29469;P24279;P30665;P29496;P53091;P38132;Q08032;Q12488;P40359;Q12146;Q03406 …). The series is described as follows: EMSA. A general note: In EMSA bound probe runs differently from free probe, usually more slowly.
The target of series [2] is Mcm3 (S. cerevisiae), subunit of CMG (Saccharomyces cerevisiae, UniProt P24279 1-971). The series is described as follows: cross-linking.
In series [3] the target is B4. Description: cross-linking.
Series [4] has as its target T1, Cdc45 (S. cerevisiae), subunit of CMG. Description: cross-linking.
Series [5] addresses T2, Mcm5 (S. cerevisiae), subunit of CMG. The series is described as follows: cross-linking.

Mcm3 (S. cerevisiae), subunit of CMG, sequence (P24279 whole entry): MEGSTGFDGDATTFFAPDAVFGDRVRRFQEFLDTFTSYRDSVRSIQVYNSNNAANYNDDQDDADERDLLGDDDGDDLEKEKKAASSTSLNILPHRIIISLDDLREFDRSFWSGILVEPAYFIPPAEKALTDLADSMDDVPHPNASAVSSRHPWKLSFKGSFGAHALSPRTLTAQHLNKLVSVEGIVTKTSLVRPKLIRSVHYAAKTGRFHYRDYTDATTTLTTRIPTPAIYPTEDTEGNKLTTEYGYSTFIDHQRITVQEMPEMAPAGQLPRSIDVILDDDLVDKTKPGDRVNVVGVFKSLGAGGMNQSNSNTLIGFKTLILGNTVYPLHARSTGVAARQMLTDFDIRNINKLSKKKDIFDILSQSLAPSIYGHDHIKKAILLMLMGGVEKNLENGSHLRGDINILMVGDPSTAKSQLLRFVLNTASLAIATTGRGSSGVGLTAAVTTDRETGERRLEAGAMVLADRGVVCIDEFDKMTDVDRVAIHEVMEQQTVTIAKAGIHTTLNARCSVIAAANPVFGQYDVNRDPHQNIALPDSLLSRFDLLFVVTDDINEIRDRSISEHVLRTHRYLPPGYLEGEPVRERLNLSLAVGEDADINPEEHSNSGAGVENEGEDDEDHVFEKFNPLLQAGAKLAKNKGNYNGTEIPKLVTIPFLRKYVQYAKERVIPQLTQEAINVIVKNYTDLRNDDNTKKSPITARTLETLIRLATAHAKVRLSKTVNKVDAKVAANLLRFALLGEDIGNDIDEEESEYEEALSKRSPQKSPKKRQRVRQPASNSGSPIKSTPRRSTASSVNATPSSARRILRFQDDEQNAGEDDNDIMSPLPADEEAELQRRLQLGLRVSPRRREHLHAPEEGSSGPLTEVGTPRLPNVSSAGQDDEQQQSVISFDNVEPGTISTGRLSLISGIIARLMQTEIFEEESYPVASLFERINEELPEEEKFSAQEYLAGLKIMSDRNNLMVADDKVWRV

Consider B1, for which, in series [1], the binding result is “binds”.
Take B2: the binding result in series [2] is reported as “binds”.
Regarding B3, the binding result in series [3] and in series [4] was “binds” throughout.
Regarding B4, the binding result in series [5] is given as “binds”.
As to B5, the binding result in series [4] is “binds”.
As for B6, the binding result in series [4] is given as “binds”.
